This note sets out measurements from article PMC11081419, “Structural basis of chemokine recognition by the class A3 tick evasin EVA‐ACA1001” (Protein Science : A Publication of the Protein Society, 2024).

The chains are these.
B1: CCL17 (ligand, human, UniProt Q92583 24-94, looked up)
chain: ARGTNVGRECCLEYFKGAIPLRKLKTWYQTSEDCSRDAIVFVTVQGRAICSDPNNKRVKNAVKYLQSLERS
notes: CCL17, human CC chemokine
B2: CCL22 (ligand, human, UniProt O00626 25-93, looked up)
chain: GPYGANMEDSVCCRDYVRYRLPLRVVKHFYWTSDSCPRPGVVLLTFRDKEICADPRVPWVKMILNKLSQ
notes: CCL22, human CC chemokine
B3: CCL26 (ligand, human, UniProt Q9Y258 24-94, looked up)
chain: TRGSDISKTCCFQYSHKPLPWTWVRSYEFTSNSCSQRAVIFTTKRGKKVCTHPRKKWVQKYISLLKTPKQL
notes: CCL26, human CC chemokine
B4: CCL19 (ligand, human, UniProt Q99731 22-98, looked up)
chain: GTNDAEDCCLSVTQKPIPGYIVRNFHYLLIKDGCRVPAVVFTTLRGRQLCAPPDQPWVERIIQRLQRTSAKMKRRSS
notes: CCL19, human CC chemokine
B5: CCL27 (ligand, human, UniProt Q9Y4X3 25-112, looked up)
chain: FLLPPSTACCTQLYRKPLSDKLLRKVIQVELQEADGDCHLQAFVLHLAQRSICIHPQNPSLSQWFEHQERKLHGTLPKLNFGMLRKMG
notes: CCL27, human CC chemokine
B6: CCL4 (ligand, human, UniProt P13236 24-92, looked up)
chain: APMGSDPPTACCFSYTARKLPRNFVVDYYETSSLCSQPAVVFQTKRSKQVCADPSESWVQEYVYDLELN
notes: CCL4, human CC chemokine
B7: CCL3 (ligand, human, UniProt P10147 24-92, looked up)
chain: SLAADTPTACCFSYTSRQIPQNFIADYFETSSQCSKPGVIFLTKRSRQVCADPSEEWVQKYVSDLELSA
notes: CCL3, human CC chemokine
B8: CCL21 (ligand, human, UniProt O00585 24-134, looked up)
chain: SDGGAQDCCLKYSQRKIPAKVVRSYRKQEPSLGCSIPAILFLPRKRSQAELCADPKELWVQQLMQHLDKTPSPQKPAQGCRKDRGASKTGKKGKGSKGCKRTERSQTPKGP
notes: CCL21, human CC chemokine
B9: CCL5 (ligand, human, UniProt P13501 24-91, looked up)
chain: SPYSSDTTPCCFAYIARPLPRAHIKEYFYTSGKCSNPAVVFVTRKNRQVCANPEKKWVREYINSLEMS
notes: CCL5, human CC chemokine
B10: CCL16 (ligand, human, UniProt O15467 24-120, looked up)
chain: QPKVPEWVNTPSTCCLKYYEKVLPRRLVVGYRKALNCHLPAIIFVTKRNREVCTNPNDDWVQEYIKDPNLPLLPTRNLSTVKIITAKNGQPQLLNSQ
notes: CCL16, human CC chemokine; The E. coli preparation is described for the crystal; also called human chemokine CCL16; not shown: His6, N-terminal, cleaved; SUMO, N-terminal, cleaved
B11: CCL23 (ligand)
chain: RVTKDAETEFMMSKLPLENPVLLDRFHATSADCCISYTPRSIPCSLLESYFETNSECSKPGVIFLTKKGRRFCANPSDKQVQVCMRMLKLDTRIKTRKN
B12: CCL1 (ligand, human, UniProt P22362 24-96, looked up)
chain: KSMQVPFSRCCFSFAEQEIPLRAILCYRNTSSICSNEGLIFKLKRGKEACALDTVGWVQRHRKMLRHCPSKRK
notes: CCL1, human CC chemokine
B13: CCL13 (ligand)
chain: not shown
notes: CCL13, human CC chemokine
B14: CCL15 (ligand)
chain: QFTNDAETELMMSKLPLENPVVLNSFHFAADCCTSYISQSIPCSLMKSYFETSSECSKPGVIFLTKKGRQVCAKPSGPGVQDCMKKLKPYSI
B15: CCL24 (ligand, human, UniProt O00175 27-119, looked up)
chain: VVIPSPCCMFFVSKRIPENRVVSYQLSSRSTCLKAGVIFTTKKGQQFCGDPKQEWVQRYMKNLDAKQKKASPRARAVAVKGPVQRYPGNQTTC
notes: CCL24, human CC chemokine
B16: CCL8 (ligand, human, UniProt P80075 24-99, looked up)
chain: QPDSVSIPITCCFNVINRKIPIQRLESYTRITNIQCPKEAVIFKTKRGKEVCADPKERWVRDSMKHLDQIFQNLKP
notes: CCL8, human CC chemokine
B17: CCL11 (ligand)
chain: not shown
notes: CCL11, human CC chemokine
B18: EVA‐ACA1001, Avi-tagged and biotinylated (SPR construct) (natural protein)
chain: ENGEGTTQPDYDNSTDYYNYEDFKCTCPAPHLNNTNGTVMKPIGCYYTCNVTRCTAPDTYPCYNLTEHQAKNLTTSPTTLCAVGNCDHGICVPNGTKELCFKAPNLEE
modifications: biotin on the AVI tag (BirA ligase)
notes: EVA-ACA1001 (Evasin P991), class A3 evasin of Amblyomma cajennense; mass of the untagged protein 11,920 Da (calculated 11,921 Da with five disulfides); also called Evasin P991; full‐length EVA‐ACA1001; not shown: His6, N-terminal, cleaved; SUMO, N-terminal, cleaved
B19: EVA‐ACA1001 (untagged, for crystallization and cell assays) (natural protein)
chain: ENGEGTTQPDYDNSTDYYNYEDFKCTCPAPHLNNTNGTVMKPIGCYYTCNVTRCTAPDTYPCYNLTEHQAKNLTTSPTTLCAVGNCDHGICVPNGTKELCFKAPNLEE
B20: CCL18 (ligand, human, UniProt P55774 21-89, looked up)
chain: AQVGTNKELCCLVYTSWQIPQKFIVDYSETSPQCPKPGVILLTKRGRQICADPNKKWVQKYISDLKLNA
notes: CCL18, human CC chemokine
B21: CCL7 (ligand)
chain: not shown
notes: CCL7, human CC chemokine

The first assay deals with B18. The experiment in a line: SPR; affinity determination: biotinylated Avi-tagged evasin immobilised on a streptavidin-coated CAPture chip; five two-fold increasing chemokine concentrations (31.25-500 nM), 240 s at 30 uL/min, 600 s dissociation; 1:1 binding model; 25°C; 10 mM HEPES, 500 mM NaCl, 0.002% Tween 20, 3 mM EDTA, 1 mg/mL carboxymethyl dextran, pH 7.5; three independent experiments (Table 1 caption: multiple-cycle kinetics). The note with it: both partners purified.
Usually Kd stands for a measure of binding affinity in units of concentration. Take B1: the Kd amounted to 1.01 nM and the pKd was 8.99 -log(Kd, M).

Take B2: binding was put at a Kd of 1.29 nM and the pKd was 8.9 -log(Kd, M).

For B3, the Kd was found to be 1.68 nM and the pKd is 8.77 -log(Kd, M).

Turning to B4, the Kd is 1.31 nM and the pKd was 8.9 -log(Kd, M).

Take B5: the Kd worked out at 84.8 nM and the pKd is 7.07 -log(Kd, M).

For B6, the Kd worked out at 1.18 nM and the pKd is 8.93 -log(Kd, M).

Consider B7, for which the Kd turned out to be 1.08 nM and the pKd is 8.99 -log(Kd, M).

On to B8, for which the pKd was 8.19 -log(Kd, M).

As to B9, the Kd came out at 0.27 nM and the pKd was 9.55 -log(Kd, M).

With B10, binding was characterised by a dissociation constant (Kd) of 0.54 nM and the pKd is 9.34 -log(Kd, M).

On to B11, for which binding was characterised by a dissociation constant (Kd) of 1.17 nM and the pKd is 8.93 -log(Kd, M).

With B12, the equilibrium dissociation constant (Kd) was 21.1 nM and the pKd is 7.71 -log(Kd, M).

With B13, binding was put at a Kd of 0.39 nM and the pKd was 9.41 -log(Kd, M).

With B14, binding was characterised by a dissociation constant (Kd) of 107 nM and the pKd is 7.02 -log(Kd, M).

Regarding B15, the Kd is 8.9 nM and the pKd is 8.22 -log(Kd, M).

Turning to B16, the equilibrium dissociation constant (Kd) worked out at 4.76 nM and the pKd is 8.34 -log(Kd, M).

For the molecule B17, the Kd worked out at 0.38 nM and the pKd is 9.49 -log(Kd, M).

The next assay has as its target B8. Described as above. As to conditions: both partners purified.
As to B18, the Kd was determined as 6.5 nM. In other words, the single-digit nanomolar range.

Another assay has as its target B7. The experiment in a line: cell-based or functional assay.
Conditions: not given
In the case of B19, the “IC50 of EVA-ACA1001 for inhibition of CCL3 (60 nM)-stimulated activation of CCR5 (inhibition of forskolin-induced cAMP, CAMYEL BRET biosensor, Flp-In-CHO cells); blocks CCL3 with CCR5” value worked out at 94 nM and the “pIC50 of EVA-ACA1001 for inhibition of CCL3 (60 nM)-stimulated activation of CCR5 (inhibition of forskolin-induced cAMP, CAMYEL BRET biosensor, Flp-In-CHO cells); blocks CCL3 with CCR5” value was 7.02 -log(IC50, M).

A further assay has as its target B6. The assay can be described thus: cell-based or functional assay.
Conditions: not given
B19: the “IC50 of EVA-ACA1001 for inhibition of CCL4 (80 nM)-stimulated activation of CCR5 (inhibition of forskolin-induced cAMP, CAMYEL BRET biosensor, Flp-In-CHO cells); blocks CCL4 with CCR5” value is 84 nM and the “pIC50 of EVA-ACA1001 for inhibition of CCL4 (80 nM)-stimulated activation of CCR5 (inhibition of forskolin-induced cAMP, CAMYEL BRET biosensor, Flp-In-CHO cells); blocks CCL4 with CCR5” value was 7.07 -log(IC50, M).

A further assay has as its target B16. The assay can be described thus: cell-based or functional assay.
Conditions: not given
For the molecule B19, the “IC50 of EVA-ACA1001 for inhibition of CCL8 (100 nM)-stimulated activation of CCR5 (inhibition of forskolin-induced cAMP, CAMYEL BRET biosensor, Flp-In-CHO cells); blocks CCL8 with CCR5” value was determined as 188 nM and the “pIC50 of EVA-ACA1001 for inhibition of CCL8 (100 nM)-stimulated activation of CCR5 (inhibition of forskolin-induced cAMP, CAMYEL BRET biosensor, Flp-In-CHO cells); blocks CCL8 with CCR5” value is 6.51 -log(IC50, M).

For the next assay, the target named is B19. The experiment in a line: crystal structure; EVA-ACA1001 and CCL16 mixed 1:1.2, complex purified on Superdex 75 in 10 mM HEPES pH 7.5, 150 mM NaCl; crystals from 0.1 M HEPES pH 7.0, 0.5% v/v Jeff ED-2001, 1.1 M sodium malonate; two complexes per asymmetric unit. As to conditions: both partners purified.
One may read the stoichiometry N as a count of units in the complex or per binding partner. As for B10, the “stoichiometry N” value is 1.

Another assay has as its target B18. The experiment in a line: SPR; screen at a single chemokine concentration: biotinylated Avi-tagged evasin immobilised on a streptavidin-coated CAPture chip (80 response units); 500 nM chemokine flowed for 240 s at 30 uL/min, 600 s dissociation; 25°C; Biacore T100; 10 mM HEPES, 500 mM NaCl, 0.002% Tween 20, 3 mM EDTA, 1 mg/mL carboxymethyl dextran, pH 7.5. As to conditions: both partners purified. (Surface plasmon resonance follows binding to a sensor surface in real time, without labels.)
On to B20, for which the binding result is reported as “binds”.

Regarding B21, the binding result is “binds”.

Another assay addresses B16. The experiment in a line: cell-based or functional assay.
Conditions: not given
This is another data set of the same source.
For B19, the “IC50 of EVA-ACA1001 for inhibition of CCL8-stimulated activation of CCR5 (cAMP assay); blocks CCL8 with CCR5” value was around 189 nM.
